Results on three substances are retold here after PMC11784651.

For assay [1], the target named is Biotinylated human CD38-Avi-His (human). The experiment in a line: SPR. (Surface plasmon resonance follows binding to a sensor surface in real time, without labels.)
Assay [2] deals with Biotinylated human CD38-Avi-His (Acrobiosystems, catalog NO: CD8-H82E7) (human). The experiment in a line: SPR.
The target of assay [3] is CD38 (soluble, in the SEC-MALS and electron microscopy of the ISB 1442/CD38 complex) (human). The experiment in a line: SEC-MALS. (In general: SEC sorts molecules by how far they enter the pores of the column.)
The target in assay [4] is ISB 1442, CD47 x CD38 bispecific biparatopic antibody (2 + 1 BEAT format) (human). Put plainly: flow cytometry on cells. A general note: Flow cytometry measures light scatter and fluorescence of single cells or particles in a stream.

On to ISB 1442 (bispecific antibody), for which, in assay [1], the Kd (as a rule, the constant that tells how readily two partners part at equilibrium) was below 0.01 nM.
In assay [2], “ISB 1442, CD47 x CD38 bispecific biparatopic antibody (2 + 1 BEAT format) (bispecific antibody)” registered a fold slower dissociation at 300 RU than at 10 RU CD38 surface density of 5.8 fold. In assay [3], this substance registered a stoichiometry N (ISB 1442 per CD38 (2:2 complex)) of 1.
“soluble CD38 (sCD38) (domain or fragment)”: the molar ratio CD38/antibody at IC50 (mol CD38 per mol antibody) in assay [4] is 2.32.
